This note sets out measurements from US20150306254A1 (REGENTS OF THE UNIVERSITY OF COLORADO A BODY CORPORATE, published 2015).

A word on the Kd: it is the constant that tells how readily two partners part at equilibrium.

One test concerns the target T1, recombinant murine C3d (murine, UniProt P01027 996-1303, limits assumed).
T1 construct: domain: C3d; also called mouse C3d
The test can be described thus: direct ELISA. Here is the method: To confirm that the antibodies reacted with C3d and not with a contaminant in the immunogen, the antibodies were tested against the C3d using a sandwich ELISA in which the recombinant C3d was captured with a polyclonal anti-C3d capture antibody (Table 2). To test reactivity of the clones against murine C3d we performed indirect and sandwich ELISAs using recombinant murine C3d. We also performed direct ELISAs to test binding of the antibodies to recombinant human C3d from a second construct, purified human C3d, and to recombinant cynomologous C3d.
To assess reactivity of antibodies against C3d, ELISAs were performed using purified forms of C3 activation fragments from several different sources (see Reagents section above). Direct ELISAs were performed by affixing 30-50 ng of the C3 fragment to the ELISA plate overnight at 4° C. The plates were blocked with 1% bovine serum albumin in PBS for 2 hours at room temperature. Bound antibodies were then detected with HRP-conjugated anti-mouse IgG (MP Biomedicals, Solon, Ohio). Sandwich ELISAs were performed by incubating polyclonal anti-human C3d antibody (Dako USA, Carpinteria, Calif.) to the ELISA plates in order to capture the C3d. Binding of the antibodies to the captured C3d was then detected as above.

For test [1], the target named is T2, C3d, source and species not stated.
T2 construct: domain: C3d; also called 3d antigen; target C3d antigen
T2 sequence (P01024 1002-1303): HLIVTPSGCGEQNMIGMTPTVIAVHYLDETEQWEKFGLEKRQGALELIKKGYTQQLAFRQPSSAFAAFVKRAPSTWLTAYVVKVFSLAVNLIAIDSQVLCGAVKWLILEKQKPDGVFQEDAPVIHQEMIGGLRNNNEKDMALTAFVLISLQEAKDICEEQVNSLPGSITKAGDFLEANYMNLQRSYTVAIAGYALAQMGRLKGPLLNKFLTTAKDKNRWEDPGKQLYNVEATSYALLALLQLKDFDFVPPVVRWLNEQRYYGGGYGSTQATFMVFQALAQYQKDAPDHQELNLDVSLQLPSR
As to the kind of experiment: radiolabeled antibody; method and antigen not stated.

For a further test, the target named is T3, recombinant human C3d (human, UniProt P01024 996-1303, limits assumed).
T3 construct: domain: C3d; also called wild-type C3d; the C3d immunogen
T3 sequence (P01024 996-1303 limits assumed): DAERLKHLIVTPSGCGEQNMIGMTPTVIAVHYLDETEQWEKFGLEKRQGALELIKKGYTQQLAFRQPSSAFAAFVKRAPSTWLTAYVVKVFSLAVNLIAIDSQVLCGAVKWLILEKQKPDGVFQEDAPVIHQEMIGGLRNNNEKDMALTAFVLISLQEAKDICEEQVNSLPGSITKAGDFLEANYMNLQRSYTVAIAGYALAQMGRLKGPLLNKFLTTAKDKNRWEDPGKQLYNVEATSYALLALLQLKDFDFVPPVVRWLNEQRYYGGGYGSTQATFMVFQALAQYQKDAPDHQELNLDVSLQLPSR
The test can be described thus: SPR, recombinant human C3d fixed to a CM5 chip. The procedure: FIGS. 12A-12C. […] Surface plasmon resonance was performed using recombinant human C3d fixed to a CM5 chip.
The affinity of clones 3d8b, 3d9, and 3d29 for C3d were tested by surface plasmon resonance (FIG. 12).
In general terms: SPR reads the build-up and loss of mass on a sensor chip optically.

T1 sequence (P01027 996-1303 limits assumed): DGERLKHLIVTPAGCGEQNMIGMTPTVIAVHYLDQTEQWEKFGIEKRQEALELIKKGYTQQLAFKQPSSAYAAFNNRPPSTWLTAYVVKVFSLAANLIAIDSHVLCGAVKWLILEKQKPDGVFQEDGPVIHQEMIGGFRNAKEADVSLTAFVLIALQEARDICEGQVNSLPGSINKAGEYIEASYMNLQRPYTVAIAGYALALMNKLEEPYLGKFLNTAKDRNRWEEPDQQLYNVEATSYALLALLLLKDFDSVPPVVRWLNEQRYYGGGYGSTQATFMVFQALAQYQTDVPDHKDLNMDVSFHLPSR

B1: mouse monoclonal antibody 3d29 (antibody, mouse IgG2a, V domains shown)
VH: EVQLQQSGPVLVKPGASVKMSCKASGYTFTDYYMNWVKQSHGKSLEWIGVINPYNGGTSYNQKFKGKATLTVDKSSRTAYMELNSLTSEDSAVYYCSRGGPYWGQGTTLTVSS
VL: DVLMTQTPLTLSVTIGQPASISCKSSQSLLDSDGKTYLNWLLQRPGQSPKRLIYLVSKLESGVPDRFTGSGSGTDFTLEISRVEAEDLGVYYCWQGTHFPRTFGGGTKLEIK
notes: Mouse IgG2a/c (Group I clone); Also used FITC-labelled, biotinylated, radiolabeled and conjugated to SPIO nanoparticles; also called C3d29; 3d29a
On to B1, for which the binding result with recombinant murine C3d is “binds”. The Kd in test [1] amounted to 0.43 nM; with recombinant human C3d, 1.06 nM.
